Conditions in all cases: EMSA: 20 mM Tris pH 8, 60 mM KCl, 1 mM EDTA, 12% glycerol, 2 mM DTT, 1 ug poly(dI-dC), 12.5 ng (legend: 12.5 nM) Cy5-DNA, +/-5 mM Ca2+, 1% agarose 0.5x TAE …
In series [1] the target is T1, pMarR (Gp0.7) WT (cyanophage P-SSP7) (UniProt Q58N47).
T1 sequence: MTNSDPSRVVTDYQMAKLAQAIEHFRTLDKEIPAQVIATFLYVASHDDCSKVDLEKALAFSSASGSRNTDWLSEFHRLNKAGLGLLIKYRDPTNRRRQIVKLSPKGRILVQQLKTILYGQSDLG
Put plainly: DNase I footprinting.

The target of series [2] is T2, pMarR R67A R67A (cyanophage P-SSP7) (UniProt Q58N47).
T2 sequence: T1 sequence with R67A
As to the kind of experiment: EMSA. (In general: A gel shift assay detects complexes by their altered migration in electrophoresis.)

The target in series [3] is T1, pMarR (Gp0.7) WT (cyanophage P-SSP7). Put plainly: EMSA.
For series [4], the target named is T3, pMarR G106A G106A (cyanophage P-SSP7) (UniProt Q58N47).
T3 sequence: T1 sequence with G106A
As to the kind of experiment: EMSA.

Series [5] addresses T4, pMarR S66A S66A (cyanophage P-SSP7) (UniProt Q58N47).
T4 sequence: T1 sequence with S66A
As to the kind of experiment: EMSA.

Residue numbers refer to the chain shown, from its start.

Consider “CAGCATCAATACCTGGTAGGACATTTTCAACAGTTCCTAAAAAAATATCCCCGATTTGATATTGACCTTGTGCGACGATTAATTCATCAACTTGATCATCTGTGAGTAGTGCTGCAATACGCGCCTGCTCAGCTATTACAATTTGCTGAGACATAAAAATTTTAAAGTATGTTTTGAATTTTTGAAAATCGATAAAAAGTAAATAATTACATATTTAATTTTTCGCTAGCAATTTCTTGAAAGC (double strand) [rne footprint fragment (Pi+ and part of Pi)]”, for which the binding entry in series [1] is on record as “binds”.

Regarding “CAGCATCAATACCTGGTAGGACATTTTCAACAGTTCCTAAAAAAATATCCCCGATTTGATATTGACCTTGTGCGACGATTAATTCATCAACTTGATCATCTGTGAGTAGTGCTGCAATACGCGCCTGCTCAGCTATTACAATTTGCTGAGAC (double strand) [rne Pi+]”, the results for the binding result in series [2], in series [4] and in series [5] were “no binding”, “binds” and “binds”, respectively. Moreover, the Kd (usually a measure of binding affinity in units of concentration) in series [3] was 320 nM.

These data come from publication PMC9692554.
